{
  "source": "paper PMC12136795",
  "about": "“RNA modifications and Prp24 coordinate Lsm2–8 binding dynamics during S. cerevisiae U6 snRNP assembly”",
  "key": {"Lsm2-8fSNAP (unlabeled) [1]": {"molecular_target": "T1, Lsm2-8fSNAP (unlabeled) (Saccharomyces cerevisiae, UniProt P38203;P57743;P40070;P40089;Q06406;P53905;P47093 …)", "T1 sequence 1": "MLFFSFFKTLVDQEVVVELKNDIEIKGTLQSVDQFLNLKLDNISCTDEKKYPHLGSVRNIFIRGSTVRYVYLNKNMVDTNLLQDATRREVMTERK", "T1 sequence 2": "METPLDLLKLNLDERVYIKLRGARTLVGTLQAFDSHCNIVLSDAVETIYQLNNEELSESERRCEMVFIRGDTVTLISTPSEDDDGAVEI", "T1 sequence 3": "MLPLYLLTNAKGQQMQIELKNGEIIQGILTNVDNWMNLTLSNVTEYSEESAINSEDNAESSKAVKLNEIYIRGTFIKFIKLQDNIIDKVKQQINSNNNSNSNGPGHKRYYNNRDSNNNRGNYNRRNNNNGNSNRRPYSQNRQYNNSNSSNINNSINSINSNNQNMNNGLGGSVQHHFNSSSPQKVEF", "T1 sequence 4": "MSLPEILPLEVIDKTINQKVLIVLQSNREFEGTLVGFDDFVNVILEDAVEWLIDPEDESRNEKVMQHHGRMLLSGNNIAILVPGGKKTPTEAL", "T1 sequence 5": "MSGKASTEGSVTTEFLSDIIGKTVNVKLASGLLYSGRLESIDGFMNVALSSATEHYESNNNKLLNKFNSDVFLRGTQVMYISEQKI", "T1 sequence 6": "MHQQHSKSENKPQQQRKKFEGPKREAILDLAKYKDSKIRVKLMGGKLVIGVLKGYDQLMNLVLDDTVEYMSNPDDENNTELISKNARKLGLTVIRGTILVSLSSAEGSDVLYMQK", "T1 sequence 7": "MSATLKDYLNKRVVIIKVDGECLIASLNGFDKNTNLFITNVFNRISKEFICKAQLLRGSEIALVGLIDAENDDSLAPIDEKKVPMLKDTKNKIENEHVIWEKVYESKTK", "test": "fluorescence polarization; Hill 0.88; FP: 2x RNA stock 2 nM mixed 1:1 with protein, 100 mM NaCl, 20 mM Bis-Tris pH 7.0, 10 mM HCl, 1 mM TCEP, 5% glycerol, yeast tRNA, BSA. EMSA: 100 mM KCl, 20% sucrose, 20 mM Hepes pH 7, 1 mM EDTA, 1 mM TCEP, 0.01% Triton X-100 (RNA buffer), yeast tRNA, heparin, BSA, 30 min room temperature, 6% native PAGE at 4 C. CoSMoS buffer not in material.", "conditions": "protein: recombinant; tags: fast SNAP tag at C terminus of Lsm8 via flexible linker; His-tag removed with TEV; copies: 1;1;1;1;1;1;1; label: fluorophore"}, "Lsm2-8 heteroheptamer WT [2]": {"molecular_target": "T2, Lsm2-8 heteroheptamer WT (Saccharomyces cerevisiae, UniProt P38203;P57743;P40070;P40089;Q06406;P53905;P47093 …)", "T2 sequence 1": "T1 sequence 1", "T2 sequence 2": "T1 sequence 2", "T2 sequence 3": "T1 sequence 3", "T2 sequence 4": "T1 sequence 4", "T2 sequence 5": "T1 sequence 5", "T2 sequence 6": "T1 sequence 6", "T2 sequence 7": "T1 sequence 7", "test": "fluorescence polarization; Hill 1.11; FP: 2x RNA stock 2 nM mixed 1:1 with protein, 100 mM NaCl, 20 mM Bis-Tris pH 7.0, 10 mM HCl, 1 mM TCEP, 5% glycerol, yeast tRNA, BSA. EMSA: 100 mM KCl, 20% sucrose, 20 mM Hepes pH 7, 1 mM EDTA, 1 mM TCEP, 0.01% Triton X-100 (RNA buffer), yeast tRNA, heparin, BSA, 30 min room temperature, 6% native PAGE at 4 C. CoSMoS buffer not in material.", "conditions": "protein: recombinant; tags: His-tag removed with TEV; copies: 1;1;1;1;1;1;1; label: fluorophore"}, "Lsm2-8fSNAP (unlabeled) [3]": {"molecular_target": "T1, Lsm2-8fSNAP (unlabeled)", "test": "fluorescence polarization; Hill 1.35; FP: 2x RNA stock 2 nM mixed 1:1 with protein, 100 mM NaCl, 20 mM Bis-Tris pH 7.0, 10 mM HCl, 1 mM TCEP, 5% glycerol, yeast tRNA, BSA. EMSA: 100 mM KCl, 20% sucrose, 20 mM Hepes pH 7, 1 mM EDTA, 1 mM TCEP, 0.01% Triton X-100 (RNA buffer), yeast tRNA, heparin, BSA, 30 min room temperature, 6% native PAGE at 4 C. CoSMoS buffer not in material.", "conditions": "protein: recombinant; tags: fast SNAP tag at C terminus of Lsm8 via flexible linker; His-tag removed with TEV; copies: 1;1;1;1;1;1;1; label: fluorophore"}, "Lsm2-8 heteroheptamer WT [4]": {"molecular_target": "T2, Lsm2-8 heteroheptamer WT", "test": "fluorescence polarization; Hill 1.26; FP: 2x RNA stock 2 nM mixed 1:1 with protein, 100 mM NaCl, 20 mM Bis-Tris pH 7.0, 10 mM HCl, 1 mM TCEP, 5% glycerol, yeast tRNA, BSA. EMSA: 100 mM KCl, 20% sucrose, 20 mM Hepes pH 7, 1 mM EDTA, 1 mM TCEP, 0.01% Triton X-100 (RNA buffer), yeast tRNA, heparin, BSA, 30 min room temperature, 6% native PAGE at 4 C. CoSMoS buffer not in material.", "conditions": "protein: recombinant; tags: His-tag removed with TEV; copies: 1;1;1;1;1;1;1; label: fluorophore"}, "Lsm2-8 heteroheptamer WT [5]": {"molecular_target": "T2, Lsm2-8 heteroheptamer WT", "test": "fluorescence polarization; Hill 1.18; FP: 2x RNA stock 2 nM mixed 1:1 with protein, 100 mM NaCl, 20 mM Bis-Tris pH 7.0, 10 mM HCl, 1 mM TCEP, 5% glycerol, yeast tRNA, BSA. EMSA: 100 mM KCl, 20% sucrose, 20 mM Hepes pH 7, 1 mM EDTA, 1 mM TCEP, 0.01% Triton X-100 (RNA buffer), yeast tRNA, heparin, BSA, 30 min room temperature, 6% native PAGE at 4 C. CoSMoS buffer not in material.", "conditions": "protein: recombinant; tags: His-tag removed with TEV; copies: 1;1;1;1;1;1;1; label: fluorophore"}, "Lsm2-8fSNAP (unlabeled) [6]": {"molecular_target": "T1, Lsm2-8fSNAP (unlabeled)", "test": "fluorescence polarization; Hill 1.12; FP: 2x RNA stock 2 nM mixed 1:1 with protein, 100 mM NaCl, 20 mM Bis-Tris pH 7.0, 10 mM HCl, 1 mM TCEP, 5% glycerol, yeast tRNA, BSA. EMSA: 100 mM KCl, 20% sucrose, 20 mM Hepes pH 7, 1 mM EDTA, 1 mM TCEP, 0.01% Triton X-100 (RNA buffer), yeast tRNA, heparin, BSA, 30 min room temperature, 6% native PAGE at 4 C. CoSMoS buffer not in material.", "conditions": "protein: recombinant; tags: fast SNAP tag at C terminus of Lsm8 via flexible linker; His-tag removed with TEV; copies: 1;1;1;1;1;1;1; label: fluorophore"}},
  "data": [
    {"binder": "AGAGAUUUAUUUCGUUUU (ssRNA, 3' phosphate)", "note": "[U6 95-112-P]", "values": [
      {"measurement": "Kd", "setting": "Lsm2-8fSNAP (unlabeled) [1]", "value": "0.0128 ± 0.00387", "unit": "µM"},
      {"measurement": "Kd", "setting": "Lsm2-8 heteroheptamer WT [2]", "value": "0.0103 ± 0.0041", "unit": "µM"}
    ]},
    {"binder": "AGAGAUUUAUUUCGUUUU (ssRNA, 3' cis-diol (2',3'-OH))", "note": "[U6 95-112-OH]", "values": [
      {"measurement": "Kd", "setting": "Lsm2-8fSNAP (unlabeled) [3]", "value": "0.114 ± 0.0168", "unit": "µM"},
      {"measurement": "Kd", "setting": "Lsm2-8 heteroheptamer WT [4]", "value": "0.0846 ± 0.0168", "unit": "µM"}
    ]},
    {"binder": "AGAGAUUUAUUUCGUUUUU (ssRNA, 3' cis-diol (2',3'-OH))", "note": "[U6 95-113-OH]", "values": [
      {"measurement": "Kd", "setting": "Lsm2-8 heteroheptamer WT [5]", "value": "0.00675 ± 0.00115", "unit": "µM"},
      {"measurement": "Kd", "setting": "Lsm2-8fSNAP (unlabeled) [6]", "value": "0.0067 ± 0.0011", "unit": "µM"}
    ]}
  ]
}
